Measured values reported in patent US10941197 (dated 2021).

B1: M71 (designed binder)
chain 1: EVQLVQSGAEVKKPGESLKISCKGSGYSFTSYWISWVRQMPGKGLEWMGIIYPGDSYTRYSPSFQGQVTISADKSISTAYLQWSSLKASDTAMYYCARVPVSPAYLDY
chain 2: not shown
B2: M42 (designed binder)
chain 1: EVQLVQSGAEVKKPGESLKISCKGSGYSFTSYWISWVRQMPGKGLEWMGIIYPGDSYTRYSPSFQGQVTISADKSISTAYLQWSSLKASDTAMYYCARGSVFEAYFDY
chain 2: not shown
B3: M64 (designed binder)
chain 1: EVQLVQSGAEVKKPGESLKISCKGSGYSFTSYWISWVRQMPGKGLEWMGIIYPGDSYTRYSPSFQGQVTISADKSISTAYLQWSSLKASDTAMYYCARVPVSPAYLDY
chain 2: not shown
B4: M54 (designed binder)
chain 1: EVQLVQSGAEVKKPGESLKISCKGSGYSFTSYWISWVRQMPGKGLEWMGIIYPGDSYTRYSPSFQGQVTISADKSISTAYLQWSSLKASDTAMYYCARGSVFEAYFDY
chain 2: not shown
B5: M69 (designed binder)
chain 1: EVQLVQSGAEVKKPGESLKISCKGSGYSFTSYWISWVRQMPGKGLEWMGIIYPGDSYTRYSPSFQGQVTISADKSISTAYLQWSSLKASDTAMYYCARVPVSPAYLDY
chain 2: not shown
B6: M55 (designed binder)
chain 1: EVQLVQSGAEVKKPGESLKISCKGSGYSFTSYWISWVRQMPGKGLEWMGIIYPGDSYTRYSPSFQGQVTISADKSISTAYLQWSSLKASDTAMYYCARGSVFEAYFDY
chain 2: not shown

Tests used:
human OSM = molecular target: T1, human OSM (human); test: SPR
T1 chain: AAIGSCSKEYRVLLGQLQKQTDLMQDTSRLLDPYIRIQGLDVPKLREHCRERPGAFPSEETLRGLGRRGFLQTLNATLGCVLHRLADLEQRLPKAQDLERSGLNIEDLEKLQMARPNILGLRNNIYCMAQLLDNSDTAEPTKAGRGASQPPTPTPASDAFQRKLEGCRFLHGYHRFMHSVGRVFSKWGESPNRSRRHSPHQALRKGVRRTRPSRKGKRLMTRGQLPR

cyno OSM = molecular target: T2, cyno OSM (cynomolgus); test: SPR
T2 chain: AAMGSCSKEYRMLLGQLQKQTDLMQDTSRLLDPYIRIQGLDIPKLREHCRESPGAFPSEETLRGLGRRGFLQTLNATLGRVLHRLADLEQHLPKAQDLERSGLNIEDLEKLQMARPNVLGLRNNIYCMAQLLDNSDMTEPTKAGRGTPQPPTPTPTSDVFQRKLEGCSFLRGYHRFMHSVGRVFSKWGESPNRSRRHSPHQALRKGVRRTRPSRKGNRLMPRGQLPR

Row | Binder | Kd (human OSM) [nM] | Kd (cyno OSM) [nM]
1 | B1 | 0.105 | 0.108
2 | B2 | 0.484 | 0.516
3 | B3 | 0.095 | 0.023
4 | B4 | 0.053 | 0.057
5 | B5 | 0.045 | 0.062
6 | B6 | 0.054 | 0.058
